Experimental data taken from PMC8253215.

Columns and labels:
[1] = molecular target: rat luteinizing hormone/chorionic gonadotropin receptor (rLH/CGR) (rat) (UniProt P16235)
[2] = molecular target: rat follicle-stimulating hormone receptor (rFSHR) (rat) (UniProt P20395)
Chain of UniProt P20395 (P20395 18-692): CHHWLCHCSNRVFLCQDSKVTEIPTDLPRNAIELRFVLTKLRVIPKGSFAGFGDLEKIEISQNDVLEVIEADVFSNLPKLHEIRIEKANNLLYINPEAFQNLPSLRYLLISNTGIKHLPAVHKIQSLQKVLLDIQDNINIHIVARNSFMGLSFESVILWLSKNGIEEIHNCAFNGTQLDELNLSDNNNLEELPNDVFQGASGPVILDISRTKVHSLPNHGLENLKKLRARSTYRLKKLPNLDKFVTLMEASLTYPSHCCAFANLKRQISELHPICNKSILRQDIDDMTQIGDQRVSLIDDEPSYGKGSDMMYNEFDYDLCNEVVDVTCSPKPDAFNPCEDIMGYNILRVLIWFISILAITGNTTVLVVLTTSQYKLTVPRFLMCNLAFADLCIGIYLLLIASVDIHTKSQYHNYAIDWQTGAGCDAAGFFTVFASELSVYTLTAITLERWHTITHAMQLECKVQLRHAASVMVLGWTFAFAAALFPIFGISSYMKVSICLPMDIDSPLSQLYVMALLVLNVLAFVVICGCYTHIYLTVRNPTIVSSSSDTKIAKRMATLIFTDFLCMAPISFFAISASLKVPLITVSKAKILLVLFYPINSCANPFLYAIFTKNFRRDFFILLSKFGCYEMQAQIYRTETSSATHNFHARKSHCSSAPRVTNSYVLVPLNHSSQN

Chain of UniProt P16235 (P16235 27-700): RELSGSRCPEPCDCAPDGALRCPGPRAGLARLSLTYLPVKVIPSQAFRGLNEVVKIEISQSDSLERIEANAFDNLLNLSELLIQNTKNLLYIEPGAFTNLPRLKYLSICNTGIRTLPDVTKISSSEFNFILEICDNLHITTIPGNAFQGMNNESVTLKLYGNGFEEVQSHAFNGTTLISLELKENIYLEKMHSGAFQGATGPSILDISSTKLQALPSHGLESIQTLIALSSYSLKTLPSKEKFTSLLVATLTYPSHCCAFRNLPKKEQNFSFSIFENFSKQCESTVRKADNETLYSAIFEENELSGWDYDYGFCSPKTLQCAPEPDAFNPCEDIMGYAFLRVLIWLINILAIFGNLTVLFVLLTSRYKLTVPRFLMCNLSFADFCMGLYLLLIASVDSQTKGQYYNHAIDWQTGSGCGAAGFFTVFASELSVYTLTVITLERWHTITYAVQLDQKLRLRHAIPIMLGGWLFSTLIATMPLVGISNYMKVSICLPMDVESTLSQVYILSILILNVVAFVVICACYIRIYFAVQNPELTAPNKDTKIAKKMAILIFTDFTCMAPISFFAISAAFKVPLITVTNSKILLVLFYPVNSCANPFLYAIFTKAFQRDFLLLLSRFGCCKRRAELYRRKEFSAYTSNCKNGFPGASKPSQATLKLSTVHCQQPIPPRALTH

For “rec-eCGβF103P;R104K/α (from UniProt P08751 21-169; P01220 25-120) (ligand)”, which EC50 of cAMP response (HTRF) in CHO-K1 cells expressing rLH/CGR [1] is on record?
The EC50 of cAMP response (HTRF) in CHO-K1 cells expressing rLH/CGR was 0.037 ng/mL.

And the EC50 of cAMP response (HTRF) in CHO-K1 cells expressing rFSHR [2]?
Its EC50 of cAMP response (HTRF) in CHO-K1 cells expressing rFSHR is 6.4 ng/mL.

Which results are given for “rec-eCGβV102G/α (from UniProt P08751 21-169; P01220 25-120) (ligand)”?
EC50 of cAMP response (HTRF) in CHO-K1 cells expressing rLH/CGR [1]: 0.015 ng/mL; EC50 of cAMP response (HTRF) in CHO-K1 cells expressing rFSHR [2]: 0.79 ng/mL

For “rec-eCGβV102G;F103P;R104K/α (from UniProt P08751 21-169; P01220 25-120) (ligand)”, which EC50 of cAMP response (HTRF) in CHO-K1 cells expressing rLH/CGR [1] is on record?
The EC50 of cAMP response (HTRF) in CHO-K1 cells expressing rLH/CGR was 0.013 ng/mL.

And the EC50 of cAMP response (HTRF) in CHO-K1 cells expressing rFSHR [2]?
Its EC50 of cAMP response (HTRF) in CHO-K1 cells expressing rFSHR is 2.86 ng/mL.

“rec-eCGβV102G;F103P/α (from UniProt P08751 21-169; P01220 25-120) (ligand)” was tested. Which EC50 of cAMP response (HTRF) in CHO-K1 cells expressing rLH/CGR [1] did it give?
The EC50 of cAMP response (HTRF) in CHO-K1 cells expressing rLH/CGR was 0.016 ng/mL.

And the EC50 of cAMP response (HTRF) in CHO-K1 cells expressing rFSHR [2]?
The EC50 of cAMP response (HTRF) in CHO-K1 cells expressing rFSHR was 1.75 ng/mL.

“single-chain recombinant equine chorionic gonadotropin β/α, wild type (rec-eCGβ/α-wt) (from UniProt P08751 21-169; P01220 25-120) (ligand)” was tested. Which EC50 of cAMP response (HTRF) in CHO-K1 cells expressing rFSHR [2] did it give?
Its EC50 of cAMP response (HTRF) in CHO-K1 cells expressing rFSHR is 0.16 ng/mL.

How did the EC50 of cAMP response (HTRF) in CHO-K1 cells expressing rLH/CGR [1] turn out when “rec-eCGβR104K/α (from UniProt P08751 21-169; P01220 25-120) (ligand)” was run?
Its EC50 of cAMP response (HTRF) in CHO-K1 cells expressing rLH/CGR is 0.033 ng/mL.

And the EC50 of cAMP response (HTRF) in CHO-K1 cells expressing rFSHR [2]?
Its EC50 of cAMP response (HTRF) in CHO-K1 cells expressing rFSHR is 0.98 ng/mL.

Which results are given for “rec-eCGβV102G;R104K/α (from UniProt P08751 21-169; P01220 25-120) (ligand)”?
EC50 of cAMP response (HTRF) in CHO-K1 cells expressing rLH/CGR [1]: 0.038 ng/mL; EC50 of cAMP response (HTRF) in CHO-K1 cells expressing rFSHR [2]: 5.45 ng/mL

What does the source list for “rec-eCGβF103P/α (from UniProt P08751 21-169; P01220 25-120) (ligand)”?
EC50 of cAMP response (HTRF) in CHO-K1 cells expressing rLH/CGR [1]: 0.018 ng/mL; EC50 of cAMP response (HTRF) in CHO-K1 cells expressing rFSHR [2]: 0.99 ng/mL
